# Source: article PMC10803776, “Structure of the M. tuberculosis DnaK−GrpE complex reveals how key DnaK roles are controlled” (Nature Communications, 2024)
# B1: Mycobacterium tuberculosis GrpE, full length, wild type (natural protein)
# chain: MTDGNQKPDGNSGEQVTVTDKRRIDPETGEVRHVPPGDMPGGTAAADAAHTEDKVAELTADLQRVQADFANYRKRALRDQQAAADRAKASVVSQLLGVLDDLERARKHGDLESGPLKSVADKLDSALTGLGLVAFGAEGEDFDPVLHEAVQHEGDGGQGSKPVIGTVMRQGYQLGEQVLRHALVGVVDTVVVDAAELESVDDGTAVADTAENDQADQGNSADTSGEQAESEPSGS
# notes: GrpE (nucleotide exchange factor) of Mycobacterium tuberculosis, full length; also called Mtb GrpE; WT GrpE
# How the values were obtained:
# [1] = target: T1, Mycobacterium tuberculosis DnaK, full length, wild type (Mycobacterium tuberculosis, UniProt P9WMJ9 1-625); experiment: ITC; as a1, with 2 mM ATP added to both the DnaK and the GrpE solution; conditions: both partners purified
# T1 construct: DnaK (Hsp70 chaperone) of Mycobacterium tuberculosis, full length; also called Mtb DnaK; WT DnaK
# [2] = target: T1, Mycobacterium tuberculosis DnaK, full …; experiment: ITC; as a1, with 2 mM ADP added to both the DnaK and the GrpE solution; conditions: both partners purified
# SEC = target: the molecule itself; experiment: SEC
binder,measurement,setting,value
B1,Kd,[1],20.7 µM
same,stoichiometry N,[1],0.07
same,Kd,[2],1790 nM
same,stoichiometry N,[2],0.69
same,stoichiometry N,SEC,2
